Assay results: article PMC3725419, “Structural insights into the activation of MST3 by MO25” (Biochemical and Biophysical Research Communications, 2013)

Biological target: T1, full length MO25β (human, UniProt Q9H9S4 1-337)
T1 construct: MO25β (mouse protein-25 beta), full length; plasmids are in the supplementary section; also called mouse protein-25 beta; source: E. coli BL21 (DE3) with pRARE2, purified (Glutathione-Sepharose, eluted with Prescission protease)
T1 sequence (looked up): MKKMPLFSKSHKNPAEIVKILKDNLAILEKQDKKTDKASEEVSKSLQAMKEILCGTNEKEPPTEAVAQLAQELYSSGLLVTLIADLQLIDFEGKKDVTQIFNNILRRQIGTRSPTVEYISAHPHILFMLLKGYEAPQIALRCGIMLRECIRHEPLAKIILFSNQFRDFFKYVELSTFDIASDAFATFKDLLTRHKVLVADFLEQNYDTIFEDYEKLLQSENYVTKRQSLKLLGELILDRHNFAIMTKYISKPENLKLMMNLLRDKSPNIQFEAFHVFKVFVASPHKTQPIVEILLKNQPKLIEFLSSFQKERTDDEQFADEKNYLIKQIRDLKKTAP
Test: crystal structure; MST3 (19-289) and MO25β mixed in an equimolar ratio, complex isolated on an S200 gel filtration column (20 mM Tris pH 7.5, 200 mM NaCl, 0.5 mM TCEP); sitting drop at 4 °C; two MST3:MO25β complexes in the asymmetric unit; no ATP or inhibitor
Details: both partners purified

binding result: binds
B1: MST3 catalytic fragment (residues 19–289) (domain or fragment)
chain: not shown
notes: numbers count on: isoform b (NCBI NP_001027467.2); plasmids are described in the supplementary section; also called MST3 catalytic domain; source: E. coli BL21 (DE3) with pRARE2, purified (Ni-Sepharose, S200 gel filtration)
